The target of this assay is T1, hemagglutinin (HA) of influenza A/H1N1, in viral protein preparations (Influenza A virus (H1N1); …, UniProt C3W5X2).
T1 construct: source: viral protein preparations from A/H1N1
Kind of assay: ELISA.

B1: VHH 2-C10 (VHH)
VHH: QVQLQESGGGLVQAGGSLRLSCVASGRTFSSYSMAWFRQAPGKEREFVASISWSDINGYYPDSVKGRFTISRDNAKNTVYLQMNSLKPEDTAVYYCAARLGLSNYHYHRVSDYDVWGQGTQVTVSS
notes: also called native VHH 2-C10; source: E. coli TOP10F', culture medium, purified (Ni-NTA agarose)
On to B1, for which the binding result is on record as “binds”.

The values above are taken from article PMC12101271 (Antibodies, 2025).
